# According to patent US20170224836A1 (Novartis, published 2017):
# Positions count from the first letter of the chain named.
# T1: human CDH6 on cells (human, UniProt P55285 54-790)
# T1 sequence: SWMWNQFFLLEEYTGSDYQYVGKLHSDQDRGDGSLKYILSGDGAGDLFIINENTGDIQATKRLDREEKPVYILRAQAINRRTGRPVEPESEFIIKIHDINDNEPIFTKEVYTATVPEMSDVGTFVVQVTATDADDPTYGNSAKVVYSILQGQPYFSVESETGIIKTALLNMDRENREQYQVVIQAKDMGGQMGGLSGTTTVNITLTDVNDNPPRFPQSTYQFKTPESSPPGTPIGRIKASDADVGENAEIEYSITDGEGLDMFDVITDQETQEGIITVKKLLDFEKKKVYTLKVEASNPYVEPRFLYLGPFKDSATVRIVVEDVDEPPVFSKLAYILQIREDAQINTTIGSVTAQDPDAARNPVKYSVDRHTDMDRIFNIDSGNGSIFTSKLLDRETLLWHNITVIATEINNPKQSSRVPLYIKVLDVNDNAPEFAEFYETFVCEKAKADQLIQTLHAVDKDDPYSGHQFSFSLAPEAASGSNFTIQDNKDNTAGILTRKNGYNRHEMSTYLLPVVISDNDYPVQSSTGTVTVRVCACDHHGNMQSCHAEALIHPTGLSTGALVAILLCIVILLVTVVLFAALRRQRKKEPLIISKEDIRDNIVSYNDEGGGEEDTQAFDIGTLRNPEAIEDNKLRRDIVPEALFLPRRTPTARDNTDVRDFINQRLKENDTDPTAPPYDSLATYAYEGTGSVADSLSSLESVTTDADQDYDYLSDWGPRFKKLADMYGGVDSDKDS
# T2: hCDH6aa54-615 APPavi (human, UniProt P55285 54-615)
# T2 sequence: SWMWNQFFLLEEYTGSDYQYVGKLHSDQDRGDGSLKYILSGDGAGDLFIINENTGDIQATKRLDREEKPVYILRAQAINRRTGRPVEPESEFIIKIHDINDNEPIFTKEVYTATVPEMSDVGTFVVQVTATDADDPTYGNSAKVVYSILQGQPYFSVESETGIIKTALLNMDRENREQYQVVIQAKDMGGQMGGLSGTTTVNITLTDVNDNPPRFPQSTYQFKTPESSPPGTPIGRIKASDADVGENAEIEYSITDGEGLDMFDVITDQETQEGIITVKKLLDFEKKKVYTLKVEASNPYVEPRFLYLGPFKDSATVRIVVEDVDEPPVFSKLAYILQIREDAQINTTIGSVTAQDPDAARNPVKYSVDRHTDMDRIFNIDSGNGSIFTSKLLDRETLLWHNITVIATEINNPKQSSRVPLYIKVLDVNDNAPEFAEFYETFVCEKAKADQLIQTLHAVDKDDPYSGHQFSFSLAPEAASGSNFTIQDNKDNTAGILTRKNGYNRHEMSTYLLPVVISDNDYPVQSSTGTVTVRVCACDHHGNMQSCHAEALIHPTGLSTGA
# B1: NOV0719-SMCC-DM1 (antibody, human IgG1, kappa, V domains shown)
# VH: QVQLLESGGGLVQPGGSLRLSCAASGFTFSSHWVHWVRQAPGKGLEWVSVISYMGSSTYYADSVKGRFTISRDNSKNTLYLQMNSLRAEDTAVYYCARGSYDMAFDVWGQGTLVTVSS
# VL: DIQMTQSPSSLSASVGDRVTITCRASQSIVSYLNWYQQKPGKAPKLLIYDASSLQSGVPSRFSGSGSGTDFTLTISSLQPEDFATYYCQQSGSHSITFGQGTKVEIKR
# modifications: SMCC-DM1 on primary amines, sites not stated
# B2: NOV0718-SMCC-DM1 (antibody, human IgG1, lambda, V domains shown)
# VH: QVQLVESGGGLVKPGGSLRLSCAASGFTFNSYALHWVRQAPGKGLEWVGRIKSKTNGGTTDYAAPVKGRFTISRDDSKNTLYLQMNSLKTEDTAVYYCARVDATYSYSGYYYPMDYWGQGTLVTVSS
# VL: DIELTQPPSVSVSPGQTASITCSGDKIPTYTVHWYQQKPGQAPVLVIYDDNKRPSGIPERFSGSNSGNTATLTISGTQAEDEADYYCQSTASGTVVFGGGTKLTVLG
# modifications: SMCC-DM1 on primary amines, sites not stated
# B3: NOV0712-SMCC-DM1 (antibody, human IgG1, kappa, V domains shown)
# VH: QVQLLESGGGLVQPGGSLRLSCAASGFTFSSHGMHWVRQAPGKGLEWVSVISGSGSNTGYADSVKGRFTISRDNSKNTLYLQMNSLRAEDTAVYYCARQWGSYAFDSWGQGTLVTVSS
# VL: DIQMTQSPSSLSASVGDRVTITCRASQSISSYLNWYQQKPGKAPKLLIYAVSTLQSGVPSRFSGSGSGTDFTLTISSLQPEDFATYYCQQSGTFPPTTFGQGTKVEIKR
# modifications: SMCC-DM1 on primary amines, sites not stated
# B4: NOV0720-SMCC-DM1 (antibody, human IgG1, lambda, V domains shown)
# VH: QVQLQQSGPGLVKPSQTLSLTCAISGDSVSSNSAGWNWIRQSPSRGLEWLGRIYYRSKWYNDYAVSVKSRITINPDTSKNQFSLQLNSVTPEDTAVYYCAREKYTVSFYDFFDYWGQGTLVTVSS
# VL: DIELTQPPSVSVSPGQTASITCSGDNIGSMTAHWYQQKPGQAPVLVIYDKNERPSGIPERFSGSNSGNTATLTISGTQAEDEADYYCQSWDDSYNSVVFGGGTKLTVLG
# modifications: SMCC-DM1 on primary amines, sites not stated
# B5: NOV0710-SPDB-DM4 (antibody, human IgG1, kappa, V domains shown)
# VH: QVQLLESGGGLVQPGGSLRLSCAASGFTFSSYAMSWVRQAPGKGLEWVSVIRSSGSSTYYADSVKGRFTISRDNSKNTLYLQMNSLRAEDTAVYYCARGGGYFDYWGQGTLVTVSS
# VL: DIQMTQSPSSLSASVGDRVTITCRASQSISLWLNWYQQKPGKAPKLLIYAASTLQSGVPSRFSGSGSGTDFTLTISSLQPEDFATYYCQQYYTSPYTFGQGTKVEIKR
# modifications: SPDB-DM4 on primary amines, sites not stated
# B6: NOV0712-SPDB-DM4 (antibody, human IgG1, kappa, V domains shown)
# VH: B3 VH
# VL: B3 VL
# modifications: SPDB-DM4 on primary amines, sites not stated
# B7: NOV1127 (antibody, human IgG1, kappa, V domains shown)
# VH: QVQLQQSGPGLVKPSQTLSLTCAISGDSVSSQSAAWNWIRQSPSRGLEWLGRIYYRSKWYNDYAVSVKSRITINPDTSKNQFSLQLNSVTPEDTAVYYCARERSYRDYFDYWGQGTLVTVSS
# VL: B5 VL with S28G, S30F, L31T, W32Y, T93S, S94T, P95S, Y96L
# B8: NOV0692 (antibody, human IgG1, lambda, V domains shown)
# VH: QVQLVESGGGLVKPGGSLRLSCAASGFTFSRYWMDWVRQAPGKGLEWVGRIKSKANGGITDYAAPVKGRFTISRDDSKNTLYLQMNSLKTEDTAVYYCARGMTFLGIWGQGTLVTVSS
# VL: DIELTQPPSVSVSPGQTASITCSGDSIGSKYAQWYQQKPGQAPVLVIYYNSERPSGIPERFSGSNSGNTATLTISGTQAEDEADYYCQSWDGQSTIRVFGGGTKLTVLG
# B9: NOV1126 (antibody, human IgG1, lambda, V domains shown)
# VH: EVQLLESGGGLVQPGGSLRLSCAASGFTFSDHAIDWVRQAPGKGLEWVSVIAGSGSITYYADSVKGRFTISRDNSKNTLYLQMNSLRAEDTAVYYCARDTGVYREYMDVWGQGTLVTVSS
# VL: SYELTQPLSVSVALGQTARITCSGDAIGTKFAHWYQQKPGQAPVLVIYYDHERPSGIPERFSGSNSGNTATLTISRAQAGDEADYYCYSRASSNLVFGGGTKLTVLG
# Target: T1, human CDH6 on cells
# Test: cell-based or functional assay
Binder,"percent inhibition at 1.22 nM ADC, JHOS4 cells [%]","percent inhibition at 1.22 nM ADC, KNS42 cells [%]","percent inhibition at 1.22 nM ADC, NCIH661 cells [%]","percent inhibition at 1.22 nM ADC, OVCAR3 cells [%]","percent inhibition at 1.22 nM ADC, SNU8 cells [%]"
B1,27.2,41,-9.87,76,3.18
B2,-5.03,3.5,2.51,-3.8,3.35
B3,67.6,56.8,32.5,87.6,31.4
B4,43.5,57,1.94,80.7,3.56

# Target: T1, human CDH6 on cells
# Test: cell-based or functional assay
# Remark: another data set of the same source
Binder,"Amax (%), inhibition of proliferation, OVCAR3 cells [%]","Amax (%), inhibition of proliferation, OVCAR8 (engineered CDH6+) cells [%]","IP [nM], inhibition of proliferation, OVCAR3 cells [nM]","IP [nM], inhibition of proliferation, OVCAR8 (engineered CDH6+) cells [nM]"
B5,88,85,0.01,0.018
B3,88,95,0.065,0.015
B6,88,84,0.008,0.012

# Target: T2, hCDH6aa54-615 APPavi
# Test: SPR binning
row,Binder,response of secondary antibody on primary antibody-CDH6 complex
1,B7,25.4
2,B8,-2.84
3,B9,18.7

# Target: T2, hCDH6aa54-615 APPavi
# Test: SPR binning
# Remark: another data set of the same source
row,Binder,response of secondary antibody on primary antibody-CDH6 complex
1,B7,30.9
2,B8,17.9
3,B9,36.9

# Target: T2, hCDH6aa54-615 APPavi
# Test: SPR binning
# Remark: another data set of the same source
row,Binder,response of secondary antibody on primary antibody-CDH6 complex
1,B7,22.4
2,B8,14.1
3,B9,26.7

# Target: T2, hCDH6aa54-615 APPavi
# Test: SPR binning
# Remark: another data set of the same source
row,Binder,response of secondary antibody on primary antibody-CDH6 complex
1,B7,51.5
2,B8,35.5
3,B9,61.6

# Target: T2, hCDH6aa54-615 APPavi
# Test: SPR binning
# Remark: another data set of the same source
row,Binder,response of secondary antibody on primary antibody-CDH6 complex
1,B7,16.5
2,B8,7.83
3,B9,8.59

# Target: T2, hCDH6aa54-615 APPavi
# Test: SPR binning
# Remark: another data set of the same source
row,Binder,response of secondary antibody on primary antibody-CDH6 complex
1,B7,36.7
2,B9,56.6

# Target: T2, hCDH6aa54-615 APPavi
# Test: SPR binning
# Remark: another data set of the same source
row,Binder,response of secondary antibody on primary antibody-CDH6 complex
1,B7,17.8
2,B8,23.2
3,B9,30.1
